US7838288B2, “Modulators of odorant receptors” (Duke University, priority 2004, dated 2010)

Columns and labels:
[1] = target: T1, mouse odorant receptor OREG (Mus musculus, UniProt Q920P2); experiment: CRE-luciferase reporter gene assay, OREG; type: cell-based; settings: 293T cells; compared to OR alone or control pCI
T1 construct: expressed in transfected cells; host or cells: 293T cells (with or without co-transfected REEP1/RTP1/RTP2) and Hana3A cells (293T stably expressing mouse REEP1, RTP1, RTP2, Galpha-olf)
T1 sequence (Q920P2 1-313): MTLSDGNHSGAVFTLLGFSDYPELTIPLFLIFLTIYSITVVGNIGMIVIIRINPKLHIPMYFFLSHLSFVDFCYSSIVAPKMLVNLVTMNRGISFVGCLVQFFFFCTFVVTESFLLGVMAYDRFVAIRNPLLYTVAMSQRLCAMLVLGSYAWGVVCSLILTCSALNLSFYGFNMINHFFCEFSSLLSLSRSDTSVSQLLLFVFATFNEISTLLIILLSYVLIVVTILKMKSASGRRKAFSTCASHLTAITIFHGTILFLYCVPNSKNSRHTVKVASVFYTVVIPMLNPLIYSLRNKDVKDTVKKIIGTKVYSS
Summary of the method: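 293T-derived cells stably expressing REEP1, RTP1, RTP2 and Gαolf, transfected with OREG, CRE-luciferase and SV40-Renilla control. Odorant applied in CD293 medium for 10 h or 4 h at 37 degrees C. Output is firefly luminescence minus no-odorant value, normalized to Renilla.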

MOR23-1 = experiment: CRE-luciferase reporter gene assay, MOR23-1; type: cell-based, mouse; settings: 293T cells expressing RTP1 variant
Method: Four ORs (S6/79, S18, S46 and S50) previously assayed using other techniques (see, e.g., Malnic, B., et al. (1999) Cell 96, 713-723; herein incorporated by reference in its entirety) were tested against an assay panel of aliphatic alcohols, aldehydes and acids and some other odorants. Additionally, five “orphan” class I ORs (MOR23-1, MOR31-4, MOR31-6, MOR32-5 and MOR32-11) whose cognate ligands were unknown were tested. At a suprathreshold concentration of 100 uM, all these ORs were odorant selective, responding to only a small subset of the odorants tested (see FIG. 11A). This specificity was retained at lower, more physiologically relevant concentrations. Many of these ORs responded to odorants present in micromolar concentrations. The cell-surface expression of these ORs by living-cell immunofluorescence were evaluated. Some ORs (S18, MOR31-4, MOR31-6 and MOR32-5) were strongly expressed while other ORs (S6, S50, MOR23-1, MOR32-11) were weakly expressed (see FIG. 12). […]
Dual-Glo system (Promega) for luciferase assay was used. […] Luminescence was measured using Wallac Victor 1420 (Perkin-Elmer). Normalized luciferase activity was calculated as [Luc (N)-Luc (0)]/RL (N), where Luc (N)=Luminescent count of a certain well, Luc (0)=Luminescent count without odorant for each OR, and RL (N)=Luminescent count of Renilla Luciferase of each well. […]

- OREG activity by luciferase, accessory protein co-expressed [1]: Increased enhancement
- 23-1 activity as indicated by luciferase expression (MOR23-1): Increased enhancement
B1: RTP1-A1: RTP1 variant from deleting portions of RTP1-A; murine SEQ ID NO: 46, human SEQ ID NO: 47 (protein, listed as Mus musculus)
chain: MCKSVTTGEWKKVFYEKMEEVKPADSWDFIIDPNLKHNVLAPGWKQYLELHASGRFHCSWCWHTWQSPHVVILFHMYLDKAQRAGSVRMRVFKQLCYECGTARLDESSMLEENIESLVDNLITSLREQCYGERGGHYRIHVASRQDNRRHRGEFCEACQEGIVHWKPSEKLLEEEATTYTFSRAPSPTKPQAETGSGCNFCSIPWCLFWATVLMLIIYLQFSFRTSV
